The Kd is the constant that tells how readily two partners part at equilibrium.

Numbering of substitutions follows the chain as printed. Names may count otherwise.

One assay concerns the target T1, Recombinant Human DLL4 (human, UniProt Q9NR61 27-524).
T1 construct: also called delta-like protein 4; rHuman DLL4
Kind of assay: ECL (MSD) multispot binding assay, DLL4 spotted on plate, Fab in solution.

Assay [1] has as its target T2, Recombinant Human DLL4 (delta-like protein 4) (human, UniProt Q9NR61 27-524).
T2 construct: Bought recombinant human DLL4 (R&D Systems Cat#1506-D4/CF), coated on the plate; also called rHuman DLL4; Delta-like 4
Briefly: ELISA, DLL4 coated plate, Fab in solution; average signal minus noise. Background: An ELISA detects its analyte on a solid surface through an enzyme-linked reagent.

For assay [2], the target named is T2, Recombinant Human DLL4 (delta-like …). Briefly: ECL (MSD) 96-well plate assay, recombinant human DLL4 coated, Fab in solution.
Assay [3] concerns the target T3, Recombinant Human DLL4 (delta-like protein 4) (human, UniProt Q9NR61 27-524).
T3 construct: also called rHuman DLL4
Briefly: ELISA, plate-coated DLL4, Fab 6.25 nM.

For assay [4], the target named is T3, Recombinant Human DLL4 (delta-like …). Briefly: ELISA, plate-coated DLL4, Fab 3.125 nM.
For assay [5] the target is unchanged. Kind of assay: ELISA, plate-coated DLL4, Fab 100 nM.
Assay [6] has the same target. Kind of assay: ELISA, plate-coated DLL4, Fab 50 nM.
The target is the same in assay [7]. Briefly: ELISA, plate-coated DLL4, Fab 12.5 nM.
The target is the same in assay [8]. Kind of assay: ELISA, plate-coated DLL4, Fab 25 nM.
Assay [9] concerns the target T4, Recombinant Human DLL4 (delta-like protein 4) (human, UniProt Q9NR61 27-524).
T4 construct: Bought recombinant protein (R&D Systems Cat#1506-D4/CF) coated on the ELISA plate; also called rHuman DLL4; Delta-like 4
Kind of assay: ELISA, DLL4 coated on plate, Fab at 0.16 nM, absorbance at 450 nm.

Assay [10] concerns the target T4, Recombinant Human DLL4 (delta-like …). Kind of assay: ELISA, DLL4 coated on plate, Fab at 2.5 nM, absorbance at 450 nm.
For assay [11] the target is unchanged. Briefly: ELISA, DLL4 coated on plate, Fab at 0.31 nM, absorbance at 450 nm.
Assay [12] shares this target. Briefly: ELISA, DLL4 coated on plate, Fab at 10 nM, absorbance at 450 nm.
Assay [13] has the same target. Kind of assay: ELISA, DLL4 coated on plate, Fab at 0.63 nM, absorbance at 450 nm.
Assay [14] has the same target. Kind of assay: ELISA, DLL4 coated on plate, Fab at 20 nM, absorbance at 450 nm.
For assay [15] the target is unchanged. Kind of assay: ELISA, DLL4 coated on plate, Fab at 1.3 nM, absorbance at 450 nm.
For assay [16] the target is unchanged. Briefly: ELISA, DLL4 coated on plate, Fab at 5 nM, absorbance at 450 nm.
Assay [17] addresses T5, Recombinant Human DLL4 (R&D Systems Cat#1506-D4/CF) (human, UniProt Q9NR61 27-524).
T5 construct: bought recombinant protein; also called rHuman DLL4; delta-like protein 4
Kind of assay: ELISA titration, 2-fold dilutions from 20 nM Fab.

B1: Fab VH1-46_IGHD6-6*01_IGHJ1*01 S102A/S103P/S104F/H111F (APFF) & L6_IGKJ1*01 W94T (Fab, V domains shown)
VH: QVQLVQSGAEVKKPGASVKVSCKASGYTFTSYYMHWVRQAPGQGLEWMGIINPSGGSTSYAQKFQGRVTMTRDTSTSTVYMELSSLRSEDTAVYYCAREEYAPFSAEYFQFWGQGTLVTVSS
VL: EIVLTQSPATLSLSPGERATLSCRASQSVSSYLAWYQQKPGQAPRLLIYDASNRATGIPARFSGSGSGTDFTLTISSLEPEDFAVYYCQQRSNTPPWTFGQGTKVEIKR
notes: Fab from E. coli; VH in Plasmid A (CH1, His6 and Flag tags), VL in Plasmid C (kappa CL); also called APFF & W94T
Turning to B1, the “ECL signal” value with Recombinant Human DLL4 was found to be 23200.

B2: Fab VH1-46_IGHD6-6*01_IGHJ1*01 S102A/S103P/S104F/H111F (H:APFF) & L6_IGKJ1*01 S28N/S30D/S31H A55R (Fab, V domains shown)
VH: B1 VH
VL: B1 VL with S28N, S30D, S31H, A55R, T94W
notes: Fab made in E. coli: heavy chain from Plasmid A (CH1, His6 and Flag tags), kappa light chain from Plasmid C (kappa CL); also called H:APFF & L:NDH A55R
B2: in [1], the “ELISA (Avgerage signal-noise)” value is 0.106. In addition, in assay [2], the “ECL signal” value amounted to 9030.

B3: Fab VH1-46_IGHD6-6*01_IGHJ1*01 S102A/S103P/S104F/H111F (APFF) & L6_IGKJ1*01 S28N/S30D/S31H A55G (Fab, V domains shown)
VH: B1 VH
VL: B1 VL with S28N, S30D, S31H, A55G, T94W
notes: Fab made in E. coli: VH in plasmid A (CH1, His6 and Flag tags), VL in plasmid C (kappa CL); also called H:APFF & L:NDH A55G; APFF / NDH/A55G
As for B3, the “ELISA signal at 6.25 nM Fab” value in assay [3] turned out to be 0.125. Further, the “ELISA signal at 3.125 nM Fab” value in assay [4] was 0.093. Further, the “ELISA signal at 100 nM Fab” value in assay [5] turned out to be 0.814. Also, the “ELISA signal at 50 nM Fab” value in assay [6] was 0.51. Besides, in assay [7], the “ELISA signal at 12.5 nM Fab” value amounted to 0.198. Moreover, the “ELISA signal at 25 nM Fab” value in assay [8] was determined as 0.316.

B4: Fab VH1-46_IGHD6-6*01_IGHJ1*01 S102A/S103P/S104F/H111F/I51E/N52L/S54T/G56H (APFF ELTH) & L6_IGKJ1*01 (Fab, V domains shown)
VH: B1 VH with I51E, N52L, S54T, G56H
VL: not shown
notes: Tested as a Fab made in E. coli: VH in Plasmid A (CH1, His6 and Flag tags), kappa VL in Plasmid C (kappa CL)
For the molecule B4, the ELISA signal in assay [9] was 2.17; in assay [10], 1.98; in [11] it was 2.29; in assay [12], 2.17; in assay [13], 1.01; in assay [14], 2.29. Besides, the ELISA signal was 0.402 in [15] and 2.33 in assay [16].

B5: Fab VH1-46_IGHD6-6*01_IGHJ1*01 S102A/S103P/S104F/H111F (APFF) & L6_IGKJ1*01 W94L (Fab, V domains shown)
VH: B1 VH
VL: B1 VL with T94L
notes: Fab from E. coli; VH in Plasmid A (CH1, His6 and Flag tags), VL in Plasmid C (kappa CL); also called APFF & W94L
For B5, the “ECL signal” value with Recombinant Human DLL4 worked out at 11600.

B6: Fab VH1-46_IGHD6-6*01_IGHJ1*01 S102A/S103P/S104F/H111F/I51N/N52L/S54T/G56H (APFF NLTH) & L6_IGKJ1*01 (Fab, V domains shown)
VH: B1 VH with I51N, N52L, S54T, G56H
VL: not shown
notes: as for B4
As for B6, the ELISA signal in assay [9] stood at 1.36; in assay [10], 1.17; in assay [11] it was 1.63; in assay [12], 1.36; in assay [13], 0.419; in assay [14], 1.63. For the same molecule, the ELISA signal in assay [15] was 0.143; in assay [16], 1.75.

B7: Fab VH1-46_IGHD6-6*01_IGHJ1*01 S102A/S103P/S104F/H111F N52L/S54T/G56H & L6_IGKJ1*01 (Fab, V domains shown)
VH: B1 VH with N52L, S54T, G56H
VL: not shown
notes: Fab; also called H:APFF LTH & L:wt; APFF LTH
On to B7, for which, in [17], the Kd lay within 1 to 10 nM.

B8: Fab VH1-46_IGHD6-6*01_IGHJ1*01 S102A/S103P/S104F/H111F I51N/N52L/S54T/G56H & L6_IGKJ1*01 (Fab, V domains shown)
VH: B1 VH with I51N, N52L, S54T, G56H
VL: not shown
notes: Fab; also called APFF NLTH
As to B8, in assay [17], the Kd was 1 to 10 nM.

B9: Fab VH1-46_IGHD6-6*01_IGHJ1*01 S102A/S103P/S104F/H111F (APFF) & L6_IGKJ1*01 W94R (Fab, V domains shown)
VH: B1 VH
VL: B1 VL with T94R
notes: Fab from E. coli; VH in Plasmid A (CH1, His6 and Flag tags), VL in Plasmid C (kappa CL); also called APFF & W94R
On to B9, for which the “ECL signal” value with Recombinant Human DLL4 was 75800.

B10: Fab VH1-46_IGHD6-6*01_IGHJ1*01 S102A/S103P/S104F/H111F (APFF) & L6_IGKJ1*01 W94M (Fab, V domains shown)
VH: B1 VH
VL: B1 VL with T94M
notes: Fab from E. coli; VH in Plasmid A (CH1, His6 and Flag tags), VL in Plasmid C (kappa CL); also called APFF & W94M
On to B10, for which the “ECL signal” value with Recombinant Human DLL4 was 33800.

B11: Fab VH1-46_IGHD6-6*01_IGHJ1*01 S102A/S103P/S104F/H111F (APFF) & L6_IGKJ1*01 S28N/S30D/S31H A55S (Fab, V domains shown)
VH: B1 VH
VL: B1 VL with S28N, S30D, S31H, A55S, T94W
notes: Fab made in E. coli: VH in plasmid A (CH1, His6 and Flag tags), VL in plasmid C (kappa CL); also called H:APFF & L:NDH A55S; APFF / NDH/A55S
As to B11, the “ELISA signal at 6.25 nM Fab” value in assay [3] came out at 0.154. In assay [4], the “ELISA signal at 3.125 nM Fab” value amounted to 0.108. Moreover, in [5], the “ELISA signal at 100 nM Fab” value came to 0.858. Moreover, the “ELISA signal at 50 nM Fab” value in assay [6] amounted to 0.588. Also, the “ELISA signal at 12.5 nM Fab” value in assay [7] was 0.258. In addition, the “ELISA signal at 25 nM Fab” value in assay [8] was 0.407.

B12: Fab VH1-46_IGHD6-6*01_IGHJ1*01 S102A/S103P/S104F/H111F I51T/N52V & L6_IGKJ1*01 (Fab, V domains shown)
VH: B1 VH with I51T, N52V
VL: not shown
notes: Fab; also called APFF I51T/N52V
For B12, the dissociation constant (Kd) in [17] lay in the range of 10 to 100 nM.

The values above are taken from patent publication US20120316071A1 (published 2012).
